We go through one molecule from patent US20230270815A1 (RAJIV GANDHI CENTRE FOR BIOTECHNOLOGY, published 2023).

For experiment [1], the target named is T1, IL6Rα (Interleukin 6 Receptor α) (UniProt P08887 20-468, limits assumed).
T1 sequence (looked up): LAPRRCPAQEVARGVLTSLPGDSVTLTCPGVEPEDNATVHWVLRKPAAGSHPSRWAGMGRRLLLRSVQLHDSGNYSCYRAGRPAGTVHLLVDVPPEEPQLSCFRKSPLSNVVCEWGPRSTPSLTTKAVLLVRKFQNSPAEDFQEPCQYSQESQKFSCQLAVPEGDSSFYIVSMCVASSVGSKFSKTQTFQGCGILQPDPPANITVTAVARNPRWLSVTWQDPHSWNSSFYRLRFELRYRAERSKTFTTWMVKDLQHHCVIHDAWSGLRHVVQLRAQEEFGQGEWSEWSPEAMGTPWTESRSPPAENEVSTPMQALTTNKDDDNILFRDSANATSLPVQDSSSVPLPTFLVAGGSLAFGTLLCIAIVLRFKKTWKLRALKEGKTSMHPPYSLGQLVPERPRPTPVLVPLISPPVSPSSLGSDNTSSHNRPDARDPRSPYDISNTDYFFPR
In words: cell-based or functional assay.

In a further experiment the target is T2, DSG3 (UniProt P32926 50-999, limits assumed).
T2 construct: whole, on cells
T2 sequence (looked up): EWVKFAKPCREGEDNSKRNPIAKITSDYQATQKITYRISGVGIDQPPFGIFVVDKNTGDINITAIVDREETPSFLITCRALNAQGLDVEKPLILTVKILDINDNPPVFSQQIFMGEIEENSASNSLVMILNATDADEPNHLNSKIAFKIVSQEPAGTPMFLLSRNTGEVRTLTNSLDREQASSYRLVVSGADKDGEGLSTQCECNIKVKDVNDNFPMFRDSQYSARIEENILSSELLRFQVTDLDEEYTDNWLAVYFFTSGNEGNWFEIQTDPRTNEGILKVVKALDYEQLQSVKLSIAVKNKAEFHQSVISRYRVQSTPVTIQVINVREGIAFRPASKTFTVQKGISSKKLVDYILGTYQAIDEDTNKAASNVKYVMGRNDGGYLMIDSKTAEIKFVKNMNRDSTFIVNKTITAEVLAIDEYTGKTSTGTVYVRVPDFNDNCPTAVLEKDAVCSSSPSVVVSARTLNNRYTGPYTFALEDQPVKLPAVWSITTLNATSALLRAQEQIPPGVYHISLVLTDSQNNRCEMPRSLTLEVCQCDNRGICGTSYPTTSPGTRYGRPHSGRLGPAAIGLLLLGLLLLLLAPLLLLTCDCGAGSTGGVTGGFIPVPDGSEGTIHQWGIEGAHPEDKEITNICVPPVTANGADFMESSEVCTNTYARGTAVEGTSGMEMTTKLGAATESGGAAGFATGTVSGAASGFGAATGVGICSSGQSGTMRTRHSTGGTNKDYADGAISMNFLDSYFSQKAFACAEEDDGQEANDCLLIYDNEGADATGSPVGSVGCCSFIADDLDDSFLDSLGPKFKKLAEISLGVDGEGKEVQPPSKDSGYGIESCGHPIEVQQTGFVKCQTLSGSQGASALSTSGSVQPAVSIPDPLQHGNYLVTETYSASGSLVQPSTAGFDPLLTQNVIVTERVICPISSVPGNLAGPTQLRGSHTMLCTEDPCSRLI
In words: co-immunofluorescence on HSC-4 cells.

The next experiment concerns the target T3, DLL1 (UniProt O00548 18-723, limits assumed).
T3 construct: whole, on cells
T3 sequence (looked up): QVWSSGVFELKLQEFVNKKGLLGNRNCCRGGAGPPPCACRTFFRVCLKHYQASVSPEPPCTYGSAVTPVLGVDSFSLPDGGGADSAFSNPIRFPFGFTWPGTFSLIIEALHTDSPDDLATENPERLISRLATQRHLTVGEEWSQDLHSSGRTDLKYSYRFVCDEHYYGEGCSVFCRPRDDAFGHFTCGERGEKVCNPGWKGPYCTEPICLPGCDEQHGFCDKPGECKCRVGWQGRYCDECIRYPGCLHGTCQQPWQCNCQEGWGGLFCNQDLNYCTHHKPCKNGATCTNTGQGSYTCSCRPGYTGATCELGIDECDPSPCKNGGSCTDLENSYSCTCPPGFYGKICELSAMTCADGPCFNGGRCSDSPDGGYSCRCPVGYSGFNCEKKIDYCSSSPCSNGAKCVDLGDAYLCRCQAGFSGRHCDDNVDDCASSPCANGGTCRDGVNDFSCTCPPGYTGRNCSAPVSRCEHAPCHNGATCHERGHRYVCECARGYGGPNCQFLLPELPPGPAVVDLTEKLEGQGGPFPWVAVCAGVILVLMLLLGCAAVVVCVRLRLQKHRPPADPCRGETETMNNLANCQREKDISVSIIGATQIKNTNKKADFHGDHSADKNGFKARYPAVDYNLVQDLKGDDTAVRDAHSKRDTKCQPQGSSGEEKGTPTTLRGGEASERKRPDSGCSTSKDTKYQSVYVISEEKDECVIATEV
Description: co-immunofluorescence on HSC-4 cells.

For the next experiment, the target named is T4, GRPR (UniProt P30550 1-384, limits assumed).
T4 construct: whole, on cells
T4 sequence (P30550 whole entry): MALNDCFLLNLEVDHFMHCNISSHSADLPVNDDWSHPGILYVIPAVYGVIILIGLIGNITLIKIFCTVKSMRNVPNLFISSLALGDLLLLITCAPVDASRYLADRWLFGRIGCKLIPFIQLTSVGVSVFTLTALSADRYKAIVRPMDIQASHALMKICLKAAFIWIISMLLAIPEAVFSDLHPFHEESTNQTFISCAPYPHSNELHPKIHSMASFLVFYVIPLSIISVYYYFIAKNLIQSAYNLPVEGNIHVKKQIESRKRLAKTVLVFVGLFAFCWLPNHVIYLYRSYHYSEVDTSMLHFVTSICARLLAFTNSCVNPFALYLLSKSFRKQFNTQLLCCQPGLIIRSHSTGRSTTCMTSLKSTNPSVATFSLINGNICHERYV
In words: co-immunofluorescence on HSC-4 cells.

No end group written: not given here.

B1: SSTP1 (Temporin1Dau1) (peptide)
peptide: FLPLLISALTSLFPKLGK
modifications: not fully specified
notes: Chemically synthesized mature peptide of 18 residues from frog skin secretion; No C-terminal amide is printed for SSTP1; also called SSTP1-biotin; SSTP1-Alexa Fluor-488
On to B1, for which, in experiment [1], the “growth inhibition of HSC-4 cells, MTT assay, IC50” value was found to be 10.2 µM. Besides, the “growth inhibition of MDA-MB-231 cells, MTT assay, IC50” value in experiment [1] was determined as 4.5 µM. Also, the binding result with DSG3, with DLL1 and in the experiment with GRPR was “no binding” each time.
